Patent US20160272683A1 (Novo Nordisk, published 2016)
Numbered stars: 1 amine (or outer) side, 2 acyl side, 3 side chain; on linkers, the order of the positions; unused ones are H or OH. * marks the point of attachment. C20 diacid = O=C(O)CCCCCCCCCCCCCCCCCCC(=O)*; C18 diacid = O=C(O)CCCCCCCCCCCCCCCCC(=O)*; γGlu = O=C(O)[C@H](CCC(=O)[*:2])N[*:1]; AEEA = NCCOCCOCC(=O)O

T1: human calcitonin receptor (human, UniProt P30988 25-474)
T1 sequence (looked up): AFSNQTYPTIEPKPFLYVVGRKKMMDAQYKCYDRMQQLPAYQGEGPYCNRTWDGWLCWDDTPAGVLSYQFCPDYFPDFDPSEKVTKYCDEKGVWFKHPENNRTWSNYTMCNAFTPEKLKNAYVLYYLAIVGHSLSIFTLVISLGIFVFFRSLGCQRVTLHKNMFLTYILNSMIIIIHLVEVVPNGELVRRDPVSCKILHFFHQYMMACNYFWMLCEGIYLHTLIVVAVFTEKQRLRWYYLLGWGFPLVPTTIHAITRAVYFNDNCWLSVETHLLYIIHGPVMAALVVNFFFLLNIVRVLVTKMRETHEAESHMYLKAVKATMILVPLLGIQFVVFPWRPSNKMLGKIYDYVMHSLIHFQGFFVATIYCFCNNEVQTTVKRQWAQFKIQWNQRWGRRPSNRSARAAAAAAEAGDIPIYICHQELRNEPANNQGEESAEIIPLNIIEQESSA

T2: human amylin 3(a) receptor (human calcitonin receptor co-expressed with RAMP-3) (human, UniProt P30988 25-474; O60896 24-148, limits assumed)
T2 sequence (looked up) 1: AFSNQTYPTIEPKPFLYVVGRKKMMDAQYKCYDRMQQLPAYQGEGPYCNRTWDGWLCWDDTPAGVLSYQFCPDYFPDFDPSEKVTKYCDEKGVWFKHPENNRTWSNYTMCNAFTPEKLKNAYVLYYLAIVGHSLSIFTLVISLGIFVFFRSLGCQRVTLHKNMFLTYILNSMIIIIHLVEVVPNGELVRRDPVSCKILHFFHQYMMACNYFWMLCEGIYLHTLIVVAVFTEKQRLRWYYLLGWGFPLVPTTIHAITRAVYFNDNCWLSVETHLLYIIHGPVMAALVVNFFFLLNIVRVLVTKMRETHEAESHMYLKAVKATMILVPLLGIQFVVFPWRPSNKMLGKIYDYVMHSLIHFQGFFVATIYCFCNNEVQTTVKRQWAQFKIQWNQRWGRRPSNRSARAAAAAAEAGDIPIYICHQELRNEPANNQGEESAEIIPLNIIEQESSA
T2 sequence (looked up) 2: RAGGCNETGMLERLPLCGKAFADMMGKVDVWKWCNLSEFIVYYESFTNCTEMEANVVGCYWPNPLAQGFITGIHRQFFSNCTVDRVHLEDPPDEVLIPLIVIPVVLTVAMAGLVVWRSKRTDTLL


How the values were obtained:
[1] = target: T1, human calcitonin receptor; experiment: cell-based or functional assay
[2] = target: T2, human amylin 3(a) receptor (human …); experiment: cell-based or functional assay

Binder | hCTR funct. EC50 (pM) [1] | hAmylin-R funct. EC50 (pM) [2]
{C18 diacid-γGlu-AEEA-AEEA}-ASGLSTAVLGRLSQELHELQTYPRTETGSGTY-NH2 (SMILES CC(C)C[C@H](NC(=O)CNC(=O)[C@H](CO)NC(=O)[C@H](C)NC(=O)COCCOCCNC(=O)COCCOCCNC(=O)CC[C@H](NC(=O)CCCCCCCCCCCCCCCCC(=O)O)C(=O)O)C(=O)N[C@@H](CO)C(=O)N[C@H](C(=O)N[C@@H](C)C(=O)N[C@H](C(=O)N[C@@H](CC(C)C)C(=O)NCC(=O)N[C@@H](CCCNC(=N)N)C(=O)N[C@@H](CC(C)C)C(=O)N[C@@H](CO)C(=O)N[C@@H](CCC(N)=O)C(=O)N[C@@H](CCC(=O)O)C(=O)N[C@@H](CC(C)C)C(=O)N[C@@H](Cc1c[nH]cn1)C(=O)N[C@@H](CCC(=O)O)C(=O)N[C@@H](CC(C)C)C(=O)N[C@@H](CCC(N)=O)C(=O)N[C@H](C(=O)N[C@@H](Cc1ccc(O)cc1)C(=O)N1CCC[C@H]1C(=O)N[C@@H](CCCNC(=N)N)C(=O)N[C@H](C(=O)N[C@@H](CCC(=O)O)C(=O)N[C@H](C(=O)NCC(=O)N[C@@H](CO)C(=O)NCC(=O)N[C@H](C(=O)N[C@@H](Cc1ccc(O)cc1)C(N)=O)[C@@H](C)O)[C@@H](C)O)[C@@H](C)O)[C@@H](C)O)C(C)C)[C@@H](C)O) [[N-terminal(C18 diacid-gGlu-2xOEG), des1, 4G, 9V, 15Q, 21Q, 23Y, 30S, 31G, 32T, 33Y]mimylin] | 22 pM | 50 pM
{C18 diacid}-EASELSTAALGRLSAELHEIATLPRTETGPESP-NH2 (SMILES CC[C@H](C)[C@H](NC(=O)[C@H](CCC(=O)O)NC(=O)[C@H](Cc1c[nH]cn1)NC(=O)[C@H](CC(C)C)NC(=O)[C@H](CCC(=O)O)NC(=O)[C@H](C)NC(=O)[C@H](CO)NC(=O)[C@H](CC(C)C)NC(=O)[C@H](CCCNC(=N)N)NC(=O)CNC(=O)[C@H](CC(C)C)NC(=O)[C@H](C)NC(=O)[C@H](C)NC(=O)[C@@H](NC(=O)[C@H](CO)NC(=O)[C@H](CC(C)C)NC(=O)[C@H](CCC(=O)O)NC(=O)[C@H](CO)NC(=O)[C@H](C)NC(=O)[C@H](CCC(=O)O)NC(=O)CCCCCCCCCCCCCCCCC(=O)O)[C@@H](C)O)C(=O)N[C@@H](C)C(=O)N[C@H](C(=O)N[C@@H](CC(C)C)C(=O)N1CCC[C@H]1C(=O)N[C@@H](CCCNC(=N)N)C(=O)N[C@H](C(=O)N[C@@H](CCC(=O)O)C(=O)N[C@H](C(=O)NCC(=O)N1CCC[C@H]1C(=O)N[C@@H](CCC(=O)O)C(=O)N[C@@H](CO)C(=O)N1CCC[C@H]1C(N)=O)[C@@H](C)O)[C@@H](C)O)[C@@H](C)O) [[N-terminal(C18 diacid), 20I]mimylin] | 5 pM | 6 pM
{C20 diacid-γGlu}-LSGLSTAVLGRLSAELHELSTYPRTETGSGTY-NH2 (SMILES CC(C)C[C@H](NC(=O)CC[C@H](NC(=O)CCCCCCCCCCCCCCCCCCC(=O)O)C(=O)O)C(=O)N[C@@H](CO)C(=O)NCC(=O)N[C@@H](CC(C)C)C(=O)N[C@@H](CO)C(=O)N[C@H](C(=O)N[C@@H](C)C(=O)N[C@H](C(=O)N[C@@H](CC(C)C)C(=O)NCC(=O)N[C@@H](CCCNC(=N)N)C(=O)N[C@@H](CC(C)C)C(=O)N[C@@H](CO)C(=O)N[C@@H](C)C(=O)N[C@@H](CCC(=O)O)C(=O)N[C@@H](CC(C)C)C(=O)N[C@@H](Cc1c[nH]cn1)C(=O)N[C@@H](CCC(=O)O)C(=O)N[C@@H](CC(C)C)C(=O)N[C@@H](CO)C(=O)N[C@H](C(=O)N[C@@H](Cc1ccc(O)cc1)C(=O)N1CCC[C@H]1C(=O)N[C@@H](CCCNC(=N)N)C(=O)N[C@H](C(=O)N[C@@H](CCC(=O)O)C(=O)N[C@H](C(=O)NCC(=O)N[C@@H](CO)C(=O)NCC(=O)N[C@H](C(=O)N[C@@H](Cc1ccc(O)cc1)C(N)=O)[C@@H](C)O)[C@@H](C)O)[C@@H](C)O)[C@@H](C)O)C(C)C)[C@@H](C)O) [[N-terminal(C20 diacid-gGlu), des1, 2L, 4G, 9V, 21S, 23Y, 30S, 31G, 32T, 33Y]mimylin] | 28 pM | 24 pM
{C20 diacid-γGlu}-ASGLSTLVLGRLSQELHELQTYPRTETGSQTY-NH2 (SMILES CC(C)C[C@H](NC(=O)CNC(=O)[C@H](CO)NC(=O)[C@H](C)NC(=O)CC[C@H](NC(=O)CCCCCCCCCCCCCCCCCCC(=O)O)C(=O)O)C(=O)N[C@@H](CO)C(=O)N[C@H](C(=O)N[C@@H](CC(C)C)C(=O)N[C@H](C(=O)N[C@@H](CC(C)C)C(=O)NCC(=O)N[C@@H](CCCNC(=N)N)C(=O)N[C@@H](CC(C)C)C(=O)N[C@@H](CO)C(=O)N[C@@H](CCC(N)=O)C(=O)N[C@@H](CCC(=O)O)C(=O)N[C@@H](CC(C)C)C(=O)N[C@@H](Cc1c[nH]cn1)C(=O)N[C@@H](CCC(=O)O)C(=O)N[C@@H](CC(C)C)C(=O)N[C@@H](CCC(N)=O)C(=O)N[C@H](C(=O)N[C@@H](Cc1ccc(O)cc1)C(=O)N1CCC[C@H]1C(=O)N[C@@H](CCCNC(=N)N)C(=O)N[C@H](C(=O)N[C@@H](CCC(=O)O)C(=O)N[C@H](C(=O)NCC(=O)N[C@@H](CO)C(=O)N[C@@H](CCC(N)=O)C(=O)N[C@H](C(=O)N[C@@H](Cc1ccc(O)cc1)C(N)=O)[C@@H](C)O)[C@@H](C)O)[C@@H](C)O)[C@@H](C)O)C(C)C)[C@@H](C)O) [[N-terminal(C20 diacid-gGlu), des1, 4G, 8L, 9V, 15Q, 21Q, 23Y, 30S, 31Q, 32T, 33Y]mimylin] | 40 pM | 52 pM

Other lines, results leading:

hCTR funct. EC50 (pM) [1] | hAmylin-R funct. EC50 (pM) [2] | Binder
34 pM | 40 pM | {C20 diacid-γGlu}-ASGLSTATLGRLSQELHELQTYPRTETGSGTY-NH2 [[N-terminal(C20 diacid-gGlu), des1, 4G, 9T, 15Q, 21Q, 23Y, 30S, 31G, 32T, 33Y]mimylin]
57 pM | 70 pM | {C20 diacid-γGlu}-ASGLSTAVLGRLSQELHELQTYPPTETGSQTY-NH2 (SMILES CC(C)C[C@H](NC(=O)CNC(=O)[C@H](CO)NC(=O)[C@H](C)NC(=O)CC[C@H](NC(=O)CCCCCCCCCCCCCCCCCCC(=O)O)C(=O)O)C(=O)N[C@@H](CO)C(=O)N[C@H](C(=O)N[C@@H](C)C(=O)N[C@H](C(=O)N[C@@H](CC(C)C)C(=O)NCC(=O)N[C@@H](CCCNC(=N)N)C(=O)N[C@@H](CC(C)C)C(=O)N[C@@H](CO)C(=O)N[C@@H](CCC(N)=O)C(=O)N[C@@H](CCC(=O)O)C(=O)N[C@@H](CC(C)C)C(=O)N[C@@H](Cc1c[nH]cn1)C(=O)N[C@@H](CCC(=O)O)C(=O)N[C@@H](CC(C)C)C(=O)N[C@@H](CCC(N)=O)C(=O)N[C@H](C(=O)N[C@@H](Cc1ccc(O)cc1)C(=O)N1CCC[C@H]1C(=O)N1CCC[C@H]1C(=O)N[C@H](C(=O)N[C@@H](CCC(=O)O)C(=O)N[C@H](C(=O)NCC(=O)N[C@@H](CO)C(=O)N[C@@H](CCC(N)=O)C(=O)N[C@H](C(=O)N[C@@H](Cc1ccc(O)cc1)C(N)=O)[C@@H](C)O)[C@@H](C)O)[C@@H](C)O)[C@@H](C)O)C(C)C)[C@@H](C)O) [[N-terminal(C20 diacid-gGlu), des1, 4G, 9V, 15Q, 21Q, 23Y, 25P, 30S, 31Q, 32T, 33Y]mimylin]
52 pM | 53 pM | {C20 diacid-γGlu}-ASGLSTAVLGRLSQELHELQTYPRTETGSATY-NH2 (SMILES CC(C)C[C@H](NC(=O)CNC(=O)[C@H](CO)NC(=O)[C@H](C)NC(=O)CC[C@H](NC(=O)CCCCCCCCCCCCCCCCCCC(=O)O)C(=O)O)C(=O)N[C@@H](CO)C(=O)N[C@H](C(=O)N[C@@H](C)C(=O)N[C@H](C(=O)N[C@@H](CC(C)C)C(=O)NCC(=O)N[C@@H](CCCNC(=N)N)C(=O)N[C@@H](CC(C)C)C(=O)N[C@@H](CO)C(=O)N[C@@H](CCC(N)=O)C(=O)N[C@@H](CCC(=O)O)C(=O)N[C@@H](CC(C)C)C(=O)N[C@@H](Cc1c[nH]cn1)C(=O)N[C@@H](CCC(=O)O)C(=O)N[C@@H](CC(C)C)C(=O)N[C@@H](CCC(N)=O)C(=O)N[C@H](C(=O)N[C@@H](Cc1ccc(O)cc1)C(=O)N1CCC[C@H]1C(=O)N[C@@H](CCCNC(=N)N)C(=O)N[C@H](C(=O)N[C@@H](CCC(=O)O)C(=O)N[C@H](C(=O)NCC(=O)N[C@@H](CO)C(=O)N[C@@H](C)C(=O)N[C@H](C(=O)N[C@@H](Cc1ccc(O)cc1)C(N)=O)[C@@H](C)O)[C@@H](C)O)[C@@H](C)O)[C@@H](C)O)C(C)C)[C@@H](C)O) [[N-terminal(C20 diacid-gGlu), des1, 4G, 9V, 15Q, 21Q, 23Y, 30S, 31A, 32T, 33Y]mimylin]
52 pM | 89 pM | {C20 diacid-γGlu-AEEA-AEEA}-ASGLSTAVLGRLSQELHELQTYPRTETGSGTY-NH2 (SMILES CC(C)C[C@H](NC(=O)CNC(=O)[C@H](CO)NC(=O)[C@H](C)NC(=O)COCCOCCNC(=O)COCCOCCNC(=O)CC[C@H](NC(=O)CCCCCCCCCCCCCCCCCCC(=O)O)C(=O)O)C(=O)N[C@@H](CO)C(=O)N[C@H](C(=O)N[C@@H](C)C(=O)N[C@H](C(=O)N[C@@H](CC(C)C)C(=O)NCC(=O)N[C@@H](CCCNC(=N)N)C(=O)N[C@@H](CC(C)C)C(=O)N[C@@H](CO)C(=O)N[C@@H](CCC(N)=O)C(=O)N[C@@H](CCC(=O)O)C(=O)N[C@@H](CC(C)C)C(=O)N[C@@H](Cc1c[nH]cn1)C(=O)N[C@@H](CCC(=O)O)C(=O)N[C@@H](CC(C)C)C(=O)N[C@@H](CCC(N)=O)C(=O)N[C@H](C(=O)N[C@@H](Cc1ccc(O)cc1)C(=O)N1CCC[C@H]1C(=O)N[C@@H](CCCNC(=N)N)C(=O)N[C@H](C(=O)N[C@@H](CCC(=O)O)C(=O)N[C@H](C(=O)NCC(=O)N[C@@H](CO)C(=O)NCC(=O)N[C@H](C(=O)N[C@@H](Cc1ccc(O)cc1)C(N)=O)[C@@H](C)O)[C@@H](C)O)[C@@H](C)O)[C@@H](C)O)C(C)C)[C@@H](C)O) [[N-terminal(C20 diacid-gGlu-2xOEG), des1, 4G, 9V, 15Q, 21Q, 23Y, 30S, 31G, 32T, 33Y]mimylin]
